# Reference: the nanobody polyreactivity screen of Harvey et al. (2022)
# Experiment: yeast display, Sf9 membrane polyspecificity reagent, FACS + sequencing; frameworks hold sequencing errors
# Outline: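 Nanobodies came from a synthetic yeast display library in Saccharomyces cerevisiae BJ5465, induced with galactose for 36–48 hours and stained for 1 hour at 4 °C with 10% biotinylated, detergent-solubilized Sf9 membrane reagent. Cells were enriched on streptavidin microbeads and then FACS-sorted, with low and high (top ~1%) gates set on anti-HA fluorescence for expression and streptavidin fluorescence for reagent binding. Each polyreactivity label reflects the gate a clone came from. Genes were amplified by colony PCR, sequenced by MiSeq 2 × 250 and filtered by CDR length.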
row,Sequence,polyreactivity (PSR sort gate)
1,QVQLVESGGGLVQAGGSLRLSCAASGFTFTQYGMGWYRQAPGKEREFVATIRFSGDNTYYADSVKGRFTISRDNAKNTVYLQMNSLKPEDTAVYYCNADNRAFFVYPVSKRYDSWGQGSQVTVSS,low polyreactivity
2,QVQLVESGGGLVQAGGSLRLSCAASGFTFDFYAMGWYRQAPGKERELVAAISKNDGTTYYADSVKGRFTISRDNAKNTVYLQMNSLKPEDTAVYYCAAESGYAVYTYVSSGDYWGQGTQVTVSS,low polyreactivity
3,QVQLVESGGGLVQAGGSLRLSCAASGYIFDIYAMGWYRQAPGKERELVAVITRSGGGTYYADSVKGRFTISRDNAKNTVYFQMNSLKPEDTAVYYCAAESYVYGGSDYVYWGQGTEVTVSS,low polyreactivity
4,QVQHVESGGGLVQAGGSLRLSCAASGSIIPSNVMGWYRQTPGKDRELVAAISNTGSTNYADSVKGRFTISRDNAKNSVYLQMNSLKPEDTAVYYCNADASYGFWSLLDYDYWGQGTQVTVSS,low polyreactivity
5,PVQLQESGGGLVQAGGSLRLSCAASGNIFDADIMGWYRQAPGKERELVACIADGGSTNYADSVKGRFTISRDNAKNTVYLQMNSLKPEDTAVYYCAAIAYPYIPNCFDYDSDYFFRGQGTQVTVSS,low polyreactivity
6,QVQLVESGGGLVQAGGSLRLSCAASGYTFDQYAMGWYRQAPGKERELVAGIDSAGSTYYADSVKGRFTISRDNAKITVYLQMNSLKPEDTAVYYCNADDLNTEVPYYYWGQGTQVTGSS,low polyreactivity
7,QVQLVESAAGLVQAGGRLRLSCAASGYTFSNYAMGWSRQAPGKERELVAAISRSGGSTYYADSVKGRFTISRDNAKNTVYLQMNSLNPVDTAVYYCAASRSGTYDWGLGTQVTVSS,high polyreactivity
8,HVQLLESGGGLLQAGGSLRLSCMASGSILRDRMSWYLQAPGKEHELVATIYDGGITYYADSMKGRFTISRDNAKNTVYLQMNSLRPEDTAVYYCGASFEGYRYHVYCGQGTQVTVSS,low polyreactivity
9,QVQLVESGGGLVQAGGSLRLSCAASGFIFDFYAMGWYRQAPGKERELVATINSSGTTNYADSVKGRFTISRDNAKNTVYLEMISLKPEDTAVYDCATVEYLGHYTYDYWGQGTQVTVSS,low polyreactivity
10,QVQLEESGGGLGQAGGSLRLTCAASGSIFRQYAMGWYRQAPGKERDLVATISRSGGSTYYADSVKGRFTISRDNAKNTVYLQLNSLKPEDTAVYYCAASRYNKSYREWWVGSWGQGTQVTVSS,high polyreactivity
11,QVQLVESGGGLVQAGGSLRLSCAASGSTFVLNAMGWDRQAPGKERELVAAITRDGRTYYADSVKGRFTISRDNAKNTVYLQMNSLKPEDTAVYYCARPARYSYGDGYWGQGTQVTVSS,low polyreactivity
12,QVQLVESGGGLVQAGGSLRLSCAASGSTGFYGMGWYRQAPGKERELVAAITFRSGSTYYADSVKGRFTISRDNAKNTVYLQMNSLKPEDTAVYYCAAYSFNNGHRYDYWGQGTQVTVSS,high polyreactivity
13,QVQLVESGGGLVQAGGSLRLSCAASGRTFATYMGWYRQAPGKERELVAGITRGGNTNYADSVKGRFTISRDNAKNTVYLQMNSLKPEDTAVYYCAKLKYRSHYSWGQGTQVTVSS,high polyreactivity
14,QVQLVESGGGLVQSGGSLRLSCAASGRTFFENAMGWYRPAPGKEREFVAAISYNGGSTYYADSVKGRFTISRDNAKNTVYLQMNSLKPEDTAVYYCAADPNYGYDYWGQGTQVTVSS,low polyreactivity
15,QVQLVESGGGLVQAGGSLRLSCAASGRTITFYTMGWYRQAPVKERELVARITGGGSTFYADSVKGRFTISRDNAKNTVYLLMNSLKPEDTAVYYCAREYASAFWYPMYYWGQGTQVNVSS,low polyreactivity
16,QVQLVESGGGLVQAGGSLRLSCAASGFIFRYYAMGWSRQAPGKERELVAAISTGGSTHYADSVKGRFTISRDNAKNTVYLQMNSLKPEDTAVYYCAAPRYFRVRYGYWGQGTQVTVSS,high polyreactivity
17,QVQLVESGGGLVQAGGSLRLSCAASGFTIYRYAMGWYRQAPGKERELVASITWSGGSTYYADSVKGRFTISRDNAKNTVYLQMNSLKPEDTAVYYCNALFSWGTGYGSSYGYWGQGTQVTVSS,high polyreactivity
18,QVQLVESGGGLVQAGGSLRLSCADSVSTFQPNAMGSYRQAPGKERELVAAISRGGSTKYAYSVKGRITISRDSAKNTVYLQMNSLKPEDTAVYYRAVVFYRHVGYSGYYYWGQGTQVTVSS,low polyreactivity
19,QVQLGESGGGLVQAGGSLRLSCAASGYIFRIYAMGGYRQAPGKERELVAAISRSGGSTSYADSVKGRFTISRDTAKNTVYLQMNSLKPEDTAVYYCATEIRPSRIAQYDYWGQGTQVTVSS,high polyreactivity
20,QVQLVESGGGLVQAGGSLRLSCAASGGIFYDYAMGWYRQAPGKERELVAAITRSGDSTYYADSVKGRFTISRDNPKNTVYLQMNSLKPEDTAVYYCAADIWSSDYEEFYYWGQGTQVTVSS,low polyreactivity
21,QVQLVESGGGLVQAGGSLRLSCAASGSIFPEYAMGWYIQAPGKERELVASISSGGSSTYYADSVKGRFTISRDNAKNTVYLQMNSLKPEDTAVYYCARRRSYKRRFDYWGQGTQVTVSS,low polyreactivity
22,QVQLVESGGGLVQAGGSLRLSCAASGFTFRYNAMGWYRQAPGKERELVATISWRGTSTYYADSVKGRFTISRDNAKNTVYLQMNSLKPEDTAVYYCAALGTVGYDYWGQGTQVTVSS,low polyreactivity

row,Sequence,polyreactivity (PSR sort gate)
1,QLQLVESGGGLVQAGGSLRLSCAASGLTIWRYAKGCYRQAPGKEREFVATISQNGGRTYYADSVKGRFTISRDNAKNSVYLQMNSLKPEDTAVYYCAADDWRWGYDYWVQGTQVTVSS,high polyreactivity
2,QVQLVESGGGLVQAGGSLRLSCAASGFTFTWNTMGWYRQAPGKERELVAAITKSAGSTYYADSVKGRFTISRDNAKNTVYLQMNSLKPEDTAVYYCAARRVSRGNSKFDYYWGQGTQVTVSS,high polyreactivity
3,QVQLVESGGGLDQAGGSLRLSCAASGRTFYRYAMGWYRQEPGKERELVATISRSGGSTYYADSVKGRFTISRDNAKNTVYLQMNSLKPEDTAVYYCNAEGYPWGFYTYDYWGQGTQVTVSS,low polyreactivity
4,QVQLVESGGGLVQAGGSLRLSCAASGFIFRYYAMGWYRQAPGKERELVAGITRTGGRTYYADSVKGRFTISRDNAKNTVYLQMNSLKPEDTAVYYCAADQYSRWRTKEAFSEYGFDYWGQGTQVTVSS,high polyreactivity
5,QVQLVESGGGLVQAGGSLRLSCAASGSIFDVYAMGWYRQAPGKERELVAAINGGGSTYYADSVKGRFTISRDNAKNTVYLQMNSLKPEDTAVYYCAADRYYYAYRYYPSGYWGQGTQVTVSS,low polyreactivity
6,QVQLVESGGGLVQAGGSLRLSCAASGYTFRLYAMGWYRQAPGKERELVAAITSRGGTFYADSVKGRFTLSRDNAKNTVYLQMNSLKPEDTAVYYCAVAPNYPDFRRAIYLYDYWGQGTQLTVSS,low polyreactivity
7,QVQLVESGGGLVQAGGSLRLSCAASGFIFRRNAMGWYRQAPGKERELVATIRASGGRTYYADSVKGRFTISRDNAKNTVYLQMNSLKPEDTAVYYCNKRGGYYGSPNYDYWGQGTQVTVSS,high polyreactivity
8,QVQLVESGGGLVQAGGSLRLSCAASGITFYGYAMGWYRQAPGKERELVAAITRGGSTNYADSVKGRFTISRDNAKITPYLQMNSLKPEDTAVYYCNTYVGRRPGYGYWGQGTQVTVSS,high polyreactivity
9,QVQLEESGGGLVQAGGSLRLSCAASGRIFMTYAMGWYRQAPGKERELVAAITRRGGTTYYADSEKARFTISRDNAKNTVYLQMNCLKPEDTAVYYCAPAKPRVISQNIIYDYWGQGTQVTVSS,high polyreactivity
10,QVQLVESGGGLVLAGGSLRLSCAASGSTFGRYAMGWSRQAPGKERELVAAISRGTTTNYADSVKGRFTIARDNAKNTVYLQMNSLKPEETAVYYCAADQPSKRYYYWGQGTQVTVSS,low polyreactivity
11,QVQLVESGGGLVQAGGSLRLSCAASGSTFDHYAMGWYRPAPGKERELVAAISYSGSTTDYADSVKGRFTISRDNAKNTVYLQMNSLKPVDTAVYYFAASGDVIQSPMDYWGQGTQVTVSS,low polyreactivity
12,QVQLVESGGGLVQAGGSLRLSCPASGTIFYVNAMGLYRQEPGKETEFVAAITGGASTNFADSVKGRFTSSRDNAKNTVYLQMNSLKPEDTAVYYCAVDPVGHATRVWTYHYDYWGQGTQVTVSS,low polyreactivity
13,QVQLVESGGGLVQAGGSLRLSCAASGSTYRVKAMGWYRQAPGKEREFVAAITRGGSTNYADSVKGRFTISRDNAMNTVYLQMNSLKPEDTAVYYCATAYRGRAWGYVYWGQGTQVTVSS,high polyreactivity
14,QVQLVESGGGLVQAGGSLRLSCAASGFTFSYYARGWYRQAPGKARELVATISSGGITNYADSVKGRFTISRDNAKNTDYLQMNSLKPEDTAVYYCAAEPSWWNVFYPGYNYWGQGTQVTVSS,high polyreactivity
15,QVQLVESGGGLVQAGGSLRLSCAASGFIFEYYAMGWYRQAPGKERELVAAISNGGGRTYYADSVKGRFTISRDNAKNTVYLQMNSLKPEDTAVYYCAAYWVYQRNSRTWEYDYWGQGTQVTVSS,high polyreactivity
16,QDQLVESGGGLVQAGGSLRLSCAASGSTFPDYAMGWYRQAPGKERELVAAISRSGGRTYYADSVKGRFTISRDNAKNTVYLQMNSLKPDDTAVYYCATSRVRSAGRDYWGQGTQVTVSS,high polyreactivity
17,QVQLVESGGGLVQAGGSLRLSCAASGSIIDANAMGWYRQAPGKERELVAAITSGDSTYYADSVKGRFTISRDNAKNTVYLQMNSLKPEDTAVYYCAADPVWHYYRMDYWGQGTQVTVSS,low polyreactivity
18,QVQLVESGGGLVQAGGSLRLSCAASGSTFGGYAMGWYRQAPGKERELVAAITYSGGSTYYADSVKGRFTISRDNAKNTVYLQMNSLKPEVTAVYYCNADDDDALPWWWPYVLDVDYWGQGTQVTVSS,low polyreactivity
19,QVQLVESGGGLVQAGGSLRLSCAASGITFYYYVMGWYRQAHGKERELVAAISNRGGSTYYADSVKGRFTISRDNAKNTVYLQMNSLKPDDTAVYYCAAYPLSGYDYWGQGTQVTVSS,high polyreactivity
20,QVQLVESGGGLVQAGGSLRLSCAASGSTFYDNAMGWYRQAPGKERELVARITWNGGRTYYADSVKGRFTISRDNAKNTVYLQMNSLKPEDTAVYYCNAVYWGYGKYDYWGQGTQVTVSS,high polyreactivity
21,QVQLVESGGGLVQAGGSLRLSCAASGFTFQRYAMGWYRQAPGKERELVAGITRRSGSTFYADSVKGRFTISRDNAKNNVYLLMNSLKPEDTAVYYCAATVPGLHWIYDFWGQGTQVTVSS,high polyreactivity
